Reference: patent US20240116985A1, “STAPLED PEPTIDES AND METHODS THEREOF” (priority 2020, published 2024)
Starred links: 1 amine or outer side, 2 acyl side, 3 side chain; linkers in the order of their positions; H or OH if unused. Positions of bridges follow the written chain, without caps; N, C: chain ends. Non-standard residues stand in square brackets, D forms with d. Primed or numbered codes have the meaning given here. No end group written: not given here. *: point of attachment. PyrS2″ = (S)-3-amino-1-((pent-4-en-1-yloxy)carbonyl)pyrrolidine-3-carboxylic acid (stapling residue), C=CCCCOC(=O)N1CC[C@@](N[*:1])(C(=O)[*:2])C1; B5(23) = 2-amino-2-(pent-4-en-1-yl)hept-6-enoic acid (2,2-bis(4-pentenyl)glycine), stitching residue, C=CCCCC(CCCC=C)(N[*:1])C(=O)[*:2]; B5(4) = 2,2-bis(4-pentenyl)glycine = 2-amino-2-(pent-4-en-1-yl)hept-6-enoic acid (stitching residue), C=CCCCC(CCCC=C)(N[*:1])C(=O)[*:2]; B5(5) = 2,2-bis(4-pentenyl)glycine, 2-amino-2-(pent-4-en-1-yl)hept-6-enoic acid (stitching residue), C=CCCCC(CCCC=C)(N[*:1])C(=O)[*:2]; TfeGA(3) = (S)-2-amino-3-((carboxymethyl)(2,2,2-trifluoroethyl)amino)prop[anoic acid], O=C([C@H](CN(CC(=O)[*:3])CC(F)(F)F)N[*:1])[*:2]; TfeGA = (S)-2-amino-3-((carboxymethyl)(2,2,2-trifluoroethyl)amino)propanoic acid, O=C([C@H](CN(CC(=O)[*:3])CC(F)(F)F)N[*:1])[*:2]; PyrS2 = (S)-3-amino-1-((pent-4-en-1-yloxy)carbonyl)pyrrolidine-3-carboxylic acid, C=CCCCOC(=O)N1CC[C@@](N[*:1])(C(=O)[*:2])C1; (Pip)GlnR = (S)-2-amino-5-oxo-5-(piperidin-1-yl)pentanoic acid, O=C(CC[C@H](N[*:1])C(=O)[*:2])N1CCCCC1; B5(3) = 2,2-bis(4-pentenyl)glycine (stitching residue), C=CCCCC(CCCC=C)(N[*:1])C(=O)[*:2]; ProSAm3 = (allylsulfonyl)-D-proline, C=CCS(=O)(=O)N1CCC[C@@H]1C(=O)*; Phe(3-COOH) = N[C@@H](Cc1cccc(C(=O)O)c1)C(=O)O; Phe(2-CF3) = N[C@@H](Cc1ccccc1C(F)(F)F)C(=O)O; Abu(4,4,4-F3) = N[C@@H](CC(F)(F)F)C(=O)O; Ala(2-furyl) = N[C@@H](Cc1ccco1)C(=O)O; Bta = N[C@@H](Cc1csc2ccccc12)C(=O)O; αAllylPro = C=CC[C@@]1(C(=O)O)CCCN1; tBuAla = CC(C)(C)C[C@H](N)C(=O)O; 2Thi = N[C@@H](Cc1cccs1)C(=O)O; 3Thi = N[C@@H](Cc1ccsc1)C(=O)O; S8 = C=CCCCCCC[C@](C)(N)C(=O)O; R5 = C=CCCC[C@@](C)(N)C(=O)O; 2F3MeF(3) = Phe analogue; Abu = CC[C@H](N)C(=O)O; Aib = CC(C)(N)C(=O)O

Molecular target: full-length beta-Catenin (Uniprot ID P35222) (Homo sapiens (Human)) (UniProt P35222)
Assay: fluorescence polarization competition; full-length beta-catenin, 5FAM-TCF4(10-53) probe as competitor
Target sequence in this assay (P35222 2-781 limits assumed): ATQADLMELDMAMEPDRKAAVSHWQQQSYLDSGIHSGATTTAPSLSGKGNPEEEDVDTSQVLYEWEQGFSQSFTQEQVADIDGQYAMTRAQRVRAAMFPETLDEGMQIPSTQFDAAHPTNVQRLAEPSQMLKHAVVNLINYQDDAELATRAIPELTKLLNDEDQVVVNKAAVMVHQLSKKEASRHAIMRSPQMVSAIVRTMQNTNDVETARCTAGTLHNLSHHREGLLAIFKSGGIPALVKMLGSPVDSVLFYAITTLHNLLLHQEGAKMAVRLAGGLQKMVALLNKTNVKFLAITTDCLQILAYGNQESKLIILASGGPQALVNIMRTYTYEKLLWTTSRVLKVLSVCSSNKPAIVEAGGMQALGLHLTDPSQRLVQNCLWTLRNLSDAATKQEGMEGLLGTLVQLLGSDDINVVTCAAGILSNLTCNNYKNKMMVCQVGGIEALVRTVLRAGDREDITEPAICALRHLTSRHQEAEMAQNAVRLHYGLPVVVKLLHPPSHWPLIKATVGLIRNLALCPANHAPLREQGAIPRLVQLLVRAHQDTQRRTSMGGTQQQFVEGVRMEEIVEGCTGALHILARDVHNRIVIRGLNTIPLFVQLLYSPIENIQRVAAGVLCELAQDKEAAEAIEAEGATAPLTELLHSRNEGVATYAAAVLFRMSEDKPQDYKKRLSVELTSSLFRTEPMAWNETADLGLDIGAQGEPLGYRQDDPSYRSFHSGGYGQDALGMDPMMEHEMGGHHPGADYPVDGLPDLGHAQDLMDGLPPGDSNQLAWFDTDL

Binder	IC50 [nM]
Ac-[αAllylPro]D[tBuAla][B5(3)]D[Phe(3-COOH)]QAFL[PyrS2″][Phe(2-CF3)][RbMe2NapA]A-NH2 (staple 1-4, 4-11) [Ac-PL3-Asp-Npg-B5-Asp-3COOHF-Gln-Ala-Phe-Leu-PyrS2-2F3MeF-RbMe2NapA-Ala-NH2]	47
Ac-[αAllylPro]D[tBuAla][B5(5)]D[Phe(3-COOH)]AAFL[PyrS2″][Phe(2-CF3)][Bta][Me2Gln]A-NH2 (staple 1-4, 4-11) [Ac-PL3-Asp-Npg-B5-Asp-3COOHF-Ala-Ala-Phe-Leu-PyrS2-2F3MeF-BztA-Me2Gln-Ala-NH2]	15
Ac-[αAllylPro]D[tBuAla][B5(3)]D[TfeGA]AAFL[PyrS2″][3Thi][Bta][Me2Gln]A-NH2 (staple 1-4, 4-11) [Ac-PL3-Asp-Npg-B5-Asp-TfeGA-Ala-Ala-Phe-Leu-PyrS2-3Thi-BztA-Me2Gln-Ala-NH2]	10
Ac-[αAllylPro]D[tBuAla][B5(3)]D[Phe(3-COOH)][Aib]AF[Abu][PyrS2″][Phe(2-CF3)][Bta][Me2Gln]A-NH2 (staple 1-4, 4-11) [Ac-PL3-Asp-Npg-B5-Asp-3COOHF-Aib-Ala-Phe-Abu-PyrS2-2F3MeF-BztA-Me2Gln-Ala-NH2]	38
Ac-[αAllylPro]D[tBuAla][B5(3)]D[Phe(3-COOH)]QAFL[PyrS2″][2F3MeF(3)][SbMe2NapA]A-NH2 (staple 1-4, 4-11) [Ac-PL3-Asp-Npg-B5-Asp-3COOHF-Gln-Ala-Phe-Leu-PyrS2-2F3MeF-SbMe2NapA-Ala-NH2]	164
Ac-[αAllylPro]D[tBuAla][B5(4)]QQAAFN[PyrS2][3Thi][Bta]Q-NH2 (staple 1-4, 4-11) [I-1558]	678
Ac-[αAllylPro]D[tBuAla][B5(3)]D[Phe(3-COOH)][Aib]AF[Abu][PyrS2″][3Thi][Bta][Me2Gln]A-NH2 (staple 1-4, 4-11) [Ac-PL3-Asp-Npg-B5-Asp-3COOHF-Aib-Ala-Phe-Abu-PyrS2-3Thi-BztA-Me2Gln-Ala-NH2]	7
Ac-[αAllylPro]D[tBuAla][B5(3)]NT[Aib]AFN[PyrS2″][3Thi][Bta]K-NH2 (staple 1-4, 4-11) [Ac-PL3-Asp-Npg-B5-Asn-Thr-Aib-Ala-Phe-Asn-PyrS2-3Thi-BztA-Lys-NH2]	165
Ac-[αAllylPro]D[tBuAla][B5(4)]SNAAFN[PyrS2][3Thi][Bta]Q-NH2 (staple 1-4, 4-11) [I-1561]	2600
Ac-[αAllylPro]D[tBuAla][B5(5)]NT[Aib]AFN[PyrS2″][3Thi][Bta]V-NH2 (staple 1-4, 4-11) [Ac-PL3-Asp-Npg-B5-Asn-Thr-Aib-Ala-Phe-Asn-PyrS2-3Thi-BztA-Val-NH2]	475
Ac-[αAllylPro]D[tBuAla][B5(4)]QNAAFN[PyrS2][3Thi][Bta]Q-NH2 (staple 1-4, 4-11) [I-1560]	368
Ac-[αAllylPro]D[tBuAla][B5(5)]NT[Aib]AFN[PyrS2″][3Thi][Bta]L-NH2 (staple 1-4, 4-11) [Ac-PL3-Asp-Npg-B5-Asn-Thr-Aib-Ala-Phe-Asn-PyrS2-3Thi-BztA-Leu-NH2]	627
Ac-[αAllylPro]D[tBuAla][B5(23)]NNAAFL[PyrS2][3Thi][Bta]Q-NH2 (staple 1-4, 4-11) [I-1557]	342
Ac-[αAllylPro]DA[B5(23)]NNAAFN[PyrS2][3Thi][Bta]Q-NH2 (staple 1-4, 4-11) [I-1556]	385
Ac-[αAllylPro]D[tBuAla][B5(3)]NT[Aib]AFN[PyrS2″][3Thi][Bta]Y-NH2 (staple 1-4, 4-11) [Ac-PL3-Asp-Npg-B5-Asn-Thr-Aib-Ala-Phe-Asn-PyrS2-3Thi-BztA-Tyr-NH2]	310
Ac-[αAllylPro]D[tBuAla][B5(4)]TNAAFN[PyrS2][3Thi][Bta]Q-NH2 (staple 1-4, 4-11) [I-1559]	9680

Now from value to binder:

IC50 [nM]	Binder
224	[ProSAm3]D[tBuAla][B5(4)]DDAAFN[PyrS2″][3Thi][Bta]Q-NH2 (staple (positions not given here); staple 4-11; not fully specified (bridges); printed as ProSAm3-Asp-Npg-B5-Asp-Asp-Ala-Ala-Phe-Asn-PyrS2-3Thi-BztA-Gln-NH2; also: staple isomer of earlier-eluting HPLC peak) [I-1576]
14	Ac-[αAllylPro]D[tBuAla][B5(3)]D[TfeGA]AAFL[PyrS2″][3Thi][Bta][(NHEt)GlnR]A-NH2 (staple 1-4, 4-11) [Ac-PL3-Asp-Npg-B5-Asp-TfeGA-Ala-Ala-Phe-Leu-PyrS2-3Thi-BztA-[NHEt]GlnR-Ala-NH2]
45	[ProSAm3]D[tBuAla][B5(4)]DDAAFN[PyrS2″][3Thi][Bta]Q-NH2 (staple (positions not given here); staple 4-11; not fully specified (bridges); printed as ProSAm3-Asp-Npg-B5-Asp-Asp-Ala-Ala-Phe-Asn-PyrS2-3Thi-BztA-Gln-NH2; also: staple isomer of later-eluting HPLC peak) [I-1577]
231	Ac-[αAllylPro]D[tBuAla][B5(23)]NQAAFN[PyrS2][3Thi][Bta]Q-NH2 (staple 1-4, 4-11; also: earlier-eluting HPLC staple isomer) [I-1566]
416	Ac-PD[tBuAla][R5]DDAAFL[PyrS2][3Thi][Bta]Q-NH2 (staple 4-11; also: staple -CH=CH- reduced to -CH2-CH2-) [I-1810]
7	Ac-[αAllylPro]D[tBuAla][B5(5)]D[Phe(3-COOH)][Aib]AF[Abu][PyrS2″][3Thi][Bta][(NHEt)GlnR]A-NH2 (staple 1-4, 4-11) [Ac-PL3-Asp-Npg-B5-Asp-3COOHF-Aib-Ala-Phe-Abu-PyrS2-3Thi-BztA-[NHEt]GlnR-Ala-NH2]
2850	Ac-[αAllylPro]D[tBuAla][B5(4)]LNAAFN[PyrS2][3Thi][Bta]Q-NH2 (staple 1-4, 4-11; also: staple isomer of later-eluting HPLC peak) [I-1563]
1340	Ac-[αAllylPro]D[tBuAla][B5(4)]NLAAFN[PyrS2][3Thi][Bta]Q-NH2 (staple 1-4, 4-11) [I-1570]
182	Ac-[αAllylPro]D[tBuAla][B5(23)]NQAAFN[PyrS2][3Thi][Bta]Q-NH2 (staple 1-4, 4-11; not fully specified; printed as Ac-PL3-Asp-Npg-B5-Asn-Gln-Ala-Ala-Phe-Asn-PyrS2-3Thi-BztA-Gln-NH2) [I-1567]
24	Ac-[αAllylPro]D[tBuAla][B5(5)]D[Phe(3-COOH)]AAFL[PyrS2″][Phe(2-CF3)][Bta][(NHEt)GlnR]A-NH2 (staple 1-4, 4-11) [Ac-PL3-Asp-Npg-B5-Asp-3COOHF-Ala-Ala-Phe-Leu-PyrS2-2F3MeF-BztA-[NHEt]GlnR-Ala-NH2]
5020	Ac-[αAllylPro]D[tBuAla][B5(4)]LNAAFN[PyrS2][3Thi][Bta]Q-NH2 (staple 1-4, 4-11; also: staple isomer of earlier-eluting HPLC peak) [I-1562]
7180	Ac-[αAllylPro]D[tBuAla][B5(4)]NYAAFN[PyrS2][3Thi][Bta]Q-NH2 (staple 1-4, 4-11; also: staple isomer of earlier-eluting HPLC peak) [I-1568]
2660	Ac-[αAllylPro]D[tBuAla][B5(4)]NYAAFN[PyrS2][3Thi][Bta]Q-NH2 (staple 1-4, 4-11; also: staple isomer of later-eluting HPLC peak) [I-1569]
19	Ac-[αAllylPro]D[tBuAla][B5(5)]D[TfeGA]AAFL[PyrS2″][3Thi][Bta][(Pip)GlnR]A-NH2 (staple 1-4, 4-11) [Ac-PL3-Asp-Npg-B5-Asp-TfeGA-Ala-Ala-Phe-Leu-PyrS2-3Thi-BztA-[Pip]GlnR-Ala-NH2]
7	Ac-[αAllylPro]D[tBuAla][B5(5)]D[Phe(3-COOH)][Aib]AF[Abu][PyrS2″][3Thi][Bta][(Pip)GlnR]A-NH2 (staple 1-4, 4-11) [Ac-PL3-Asp-Npg-B5-Asp-3COOHF-Aib-Ala-Phe-Abu-PyrS2-3Thi-BztA-[Pip]GlnR-Ala-NH2]

Molecular target: full-length beta-Catenin (Uniprot ID P35222) (Homo sapiens (Human)) (UniProt P35222)
Assay: fluorescence polarization competition; full-length beta-catenin with 5FAM-TCF4(10-53) probe as competitor
Target sequence in this assay (P35222 2-781 limits assumed): as above

IC50 [nM]	Binder
123	Ac-[αAllylPro]DA[B5(4)]D[TfeGA(3)]AAFQ[S8]F[Bta]H-NH2 (staple 1-4, 4-11) [I-499]
88	Ac-[αAllylPro]DA[B5(4)]DEAAFQ[S8]F[Bta][Ala(2-furyl)]-NH2 (staple 1-4, 4-11) [I-490]
176	Ac-[αAllylPro]DI[B5(4)]D[TfeGA(3)]AAFQ[S8]F[Bta]H-NH2 (staple 1-4, 4-11) [I-500]
57	Ac-[αAllylPro]DI[B5(4)]DDAA[2Thi]Q[S8]F[Bta]H-NH2 (staple 1-4, 4-11) [I-489]
94	Ac-[αAllylPro]D[Abu(4,4,4-F3)][B5(4)]DEAAFQ[S8]F[Bta]Q-NH2 (staple 1-4, 4-11; also: earlier eluting isomer) [I-501]

Molecular target: full-length beta-Catenin (Uniprot ID P35222) (Homo sapiens (Human)) (UniProt P35222)
Assay: fluorescence polarization competition; displacement of 5FAM-TCF4(10-53) from full-length beta-catenin
Target sequence in this assay (P35222 whole entry): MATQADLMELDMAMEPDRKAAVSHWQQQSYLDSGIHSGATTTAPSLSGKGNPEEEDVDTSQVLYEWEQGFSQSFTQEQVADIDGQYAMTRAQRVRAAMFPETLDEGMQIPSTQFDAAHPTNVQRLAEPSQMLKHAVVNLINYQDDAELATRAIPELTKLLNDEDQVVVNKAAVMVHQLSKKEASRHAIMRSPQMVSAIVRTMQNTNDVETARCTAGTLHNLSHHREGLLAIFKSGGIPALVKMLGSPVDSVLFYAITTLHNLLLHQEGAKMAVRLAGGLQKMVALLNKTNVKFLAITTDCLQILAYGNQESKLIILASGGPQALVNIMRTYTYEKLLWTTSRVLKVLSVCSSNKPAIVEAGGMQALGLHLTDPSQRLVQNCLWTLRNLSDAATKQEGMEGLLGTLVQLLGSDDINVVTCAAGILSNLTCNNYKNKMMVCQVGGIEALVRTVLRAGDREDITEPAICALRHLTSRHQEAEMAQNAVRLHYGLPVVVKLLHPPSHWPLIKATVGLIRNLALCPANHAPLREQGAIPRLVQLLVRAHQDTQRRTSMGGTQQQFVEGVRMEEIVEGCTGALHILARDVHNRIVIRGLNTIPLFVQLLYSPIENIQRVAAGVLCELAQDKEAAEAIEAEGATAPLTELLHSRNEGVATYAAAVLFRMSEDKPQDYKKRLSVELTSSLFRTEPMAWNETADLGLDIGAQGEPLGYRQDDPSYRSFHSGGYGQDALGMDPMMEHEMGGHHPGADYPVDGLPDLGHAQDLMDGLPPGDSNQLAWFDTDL

EC50 [nM]	Binder
123	Ac-[αAllylPro]DA[B5(4)]D[TfeGA(3)]AAFQ[S8]F[Bta]H-NH2 (staple 1-4, 4-11) [I-499]
88	Ac-[αAllylPro]DA[B5(4)]DEAAFQ[S8]F[Bta][Ala(2-furyl)]-NH2 (staple 1-4, 4-11) [I-490]
176	Ac-[αAllylPro]DI[B5(4)]D[TfeGA(3)]AAFQ[S8]F[Bta]H-NH2 (staple 1-4, 4-11) [I-500]
57	Ac-[αAllylPro]DI[B5(4)]DDAA[2Thi]Q[S8]F[Bta]H-NH2 (staple 1-4, 4-11) [I-489]
94	Ac-[αAllylPro]D[Abu(4,4,4-F3)][B5(4)]DEAAFQ[S8]F[Bta]Q-NH2 (staple 1-4, 4-11; also: earlier eluting isomer) [I-501]
